Reference: the supplement of paper PMC10567573

B1: BTBD1 (parent)
chain: IVGFGLYGSIHGPTDYQVNIQIIE
B2: ZNF263 (parent)
chain: HLTRHQRTHTGEKPYKCTLCGENF

Variants of: B1
Assay: protein stability index of a GFP-peptide fusion (GPS, HEK-293T) (PSI 1-6); higher = more stable
Conditions: c terminus: a fixed tail appended
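Further: lentivirally expressed fusions sorted by FACS into six bins by GFP to DsRed ratio, PSI derived from sequencing read proportions per bin multiplied by bin number.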

Protein stability index: each site, then its substitutions
I22: C 4.32 | D 1.3 | E 2 | F 2.84 | G 1.91 | H 2.4 | K 2.4 | L 2.65 | N 1.24 | P 3.17 | Q 3 | S 2.09 | V 3.25 | W 3.36 | Y 2.48
I23: C 2.05 | E 2.23 | H 4.05 | K 2.13 | L 2.96 | M 3.68 | N 3.56 | P 2.21 | R 2.12 | S 2.29 | V 2.82 | W 1.57 | Y 2.12
E24: A 2.41 | F 1.72 | H 2.33 | I 2.08 | K 2.36 | L 4.16 | P 2.89 | Q 2.62 | S 2.78 | T 3.78 | V 2.95 | W 3.21 | Y 2.02

Variants of: B2
Assay: as above
Conditions: c terminus: a fixed tail appended

Protein stability index, by site and new letter:
H1: A 3.07 | C 4.02 | D 2.97 | E 2.97 | F 1.36 | G 2.19 | I 2.19 | K 2.74 | L 3.11 | M 3.02 | N 3.22 | P 4.14 | Q 3.06 | R 3.02 | S 3.12 | T 2.56 | V 2.46 | W 2.22 | Y 2.23
L2: A 3.06 | C 4.73 | D 4.16 | E 3.31 | F 2.9 | G 3.51 | H 3.53 | I 2.59 | K 3.38 | M 3.04 | N 3.73 | P 3.57 | Q 3.22 | R 2.79 | S 3.8 | T 3.14 | V 3.39 | W 2.71 | Y 3.3
T3: A 2.88 | C 3.47 | D 3.77 | E 3.29 | F 2.3 | G 2.3 | H 3.4 | I 2.33 | K 3.1 | L 2.1 | M 2.63 | N 3.6 | P 2.48 | Q 3.28 | R 3.77 | S 2.83 | V 2.93 | W 2.31 | Y 2.36
R4: A 3.43 | C 3.67 | D 4.07 | E 3.7 | F 2.38 | G 2.38 | H 3.53 | I 2.61 | K 3.47 | L 3.22 | M 2.83 | N 3.09 | P 3.76 | Q 3.32 | S 3.37 | T 3.1 | V 3.35 | W 2.5 | Y 2.76
H5: A 2.69 | C 3.92 | D 2.56 | E 2.96 | F 2.47 | G 3 | I 2.11 | K 2.98 | L 2.09 | M 2.28 | N 2.34 | P 2.91 | Q 3.08 | R 2.74 | S 3.2 | T 2.24 | V 2.27 | W 2.31 | Y 2.39
Q6: A 2.93 | C 3.36 | D 2.84 | E 2.71 | F 2.08 | G 2.85 | H 3.28 | I 2.22 | K 2.94 | L 2.61 | M 2.6 | N 2.46 | P 2.69 | R 3.19 | S 3.68 | T 2.75 | V 2.29 | W 2.04 | Y 2.7
R7: A 2.94 | C 4.78 | D 3.2 | E 3.98 | F 2.49 | G 3.39 | H 4.64 | I 2.4 | K 2.97 | L 2.97 | M 2.94 | N 3.51
